Experimental findings from US12173330B2, “Method for producing hydroxy-L-pipecolic acid” (API CORPORATION, priority 2015, dated 2024) are described below.

Series [1] can be described thus: Production of hydroxy-L-pipecolic acids by culture of recombinant E. coli expressing the hydroxylase (Example 5). The note with it: for Accumulation of (4R)-hydroxy-L-proline: 64 hours; for Accumulation amount of (4R)-hydroxy-L-proline / Accumulation amount of (4S)-hydroxy-L-pipecolic acid / Accumulation amount of L-pipecolic acid / Accumulation amount of (4S)-hydroxy-L-proline / Accumulation amount of (5S)-Hydroxy-L-pipecolic acid: 20 mmol/L L-pipecolic acid in medium, 30° C.; for Conversion of the substrate to (4S)-hydroxy-L-pipecolic acid: incubation for 64 hours; for Accumulation of (4S)-hydroxy-L-proline: 120 hours. It counts as cell-based, E. coli BL21 (DE3).

Series [2] in a line: Catalytic efficiency (kcat/Km) of L-pipecolic acid hydroxylases with L-proline (Example 3). The format is biochemical. The note with it: for hydroxy-L-proline detected from the reaction solution: L-proline as substrate, Example 3, in words; for Activity, Substrate: L-proline (cell spanning Km to kcat/Km): in words. How it is done:
Each of the obtained recombinant E. coli strains in a volume of 0.6 mL was recovered by centrifugation and was suspended in 0.5 mL of 50 mmol/L MES (2-morpholinoethanesulfonic acid) buffer at pH 6. The container containing the suspension was placed in ice-water bath to perform sonication and then spun at 12,000 rpm. The obtained supernatant was used as an enzyme solution in Example 3.
Subsequently, 0.05 mL of 1 mol/L hydrochloric acid was added to stop the reaction.
The reaction using L-proline as a substrate was carried out under the same conditions as in the above reaction using L-pipecolic acid.
Then, each reaction solution was treated using 1-fluoro-2,4-dinitrophenyl-5-L-alaninamide (FDAA) (manufactured by Tokyo Chemical Industry Co., Ltd.) according to a method as described below, to obtain a FDAA-derivative of a hydroxy-L-pipecolic acid or hydroxy-L-proline included in each reaction solution.
To the reaction solution after stopping the reaction, 0.05 mL of 1 mol/L sodium hydroxide was added for neutralization. After centrifuging the solution at 12,000 rpm, 15 μL of 0.5 mol/L borate buffer (pH 9) was added to 15 μL of the obtained supernatant, followed by further addition of 30 μL of 20 mmol/L FDAA solution in acetone and incubation at 40° C. for one hour. Subsequently, 10 μL of 1 mol/L hydrochloric acid was added to stop the derivatization reaction. The resulting solution was diluted by adding 80 μL of methanol, and then centrifuged at 12,000 rpm. The obtained supernatant was used as a FDAA derivative solution.
The amount of produced hydroxy-L-pipecolic acid or hydroxy-L-proline was analyzed with UPLC-MS (manufactured by Waters Co.).
An aliquot containing 5 μg of total protein was taken from each enzyme solution obtained in Example 2, loaded on each lane, and then electrophoresed on polyacrylamide gel. The obtained electrophoretogram was analyzed using the image analysis software Image Lab3.0 (manufactured by Bio-Rad Laboratories, Inc.) to determine the content of each hydroxylase. A carbonic anhydrase (manufactured by Sigma-Aldrich Co. LLC) was used as a quantification reference. The content of a hydroxylase of interest was calculated from the signal intensity of the enzyme of interest, based on the signal intensities of bands corresponding to 200 ng, 400 ng and 600 ng of the quantification reference provided for the electrophoresis.
The catalytic efficiency of each enzyme was calculated based on the Michaelis-Menten kinetic equation.
It is known that, in FIG. 1, the reciprocal of each intercept with the x-axis, multiplied with −1, represents a km value (mmol/L) and the reciprocal of each intercept with the y-axis represents a Vmax value (U/mg), the maximum rate of reaction.
The catalytic ability per molecule of the enzyme (kcat) can be calculated from the Vmax and the molecular weight of the enzyme. Table 5 indicates the result of the calculation of catalytic efficiency (kcat/km), which is an index representing the catalytic ability of an enzyme, based on the obtained kcat and km values.

Series [3] can be described thus: Reactivity comparison of L-pipecolic acid 5-hydroxylases, substrate L-pipecolic acid (Example 4). The note with it: 10 mmol/L substrate, 30° C., 30 minutes; hydroxy-L-pipecolic acid-producing activity set to 100.
Description: (§1) The detection of the products was based on the absorbance at a wavelength of 340 nm.
(§2) The activity values were evaluated by the amount of a product per gram of total protein (U/g-protein).
Series [4] can be described thus: Reactivity comparison of L-pipecolic acid 5-hydroxylases, substrate L-proline (Example 4). The note with it: for Relative activity, Substrate: L-proline (hydroxy-L-proline-producing activity, 100 = hydroxy-L-pipecolic acid-producing activity): 10 mmol/L substrate, 30° C., 30 minutes; for hydroxy-L-proline detected from the reaction solution: Example 4, 10 mmol/L L-proline, in words.
Description: as §1, §2

B1: CgPH: L-pipecolic acid trans-4-hydroxylase from Colletotrichum gloeosporioides Nara qc5, GenBank ELA34460, SEQ ID NO: 12 (protein)
chain: MSDKGATLDMSLFFGTPEEKGYFCTELLRLLKLRGGVKIQNHSIPDEDIHKLFDMSRKFFALPLETKMEAKHPPQANPNRGYSFIGQENVANISGYEKGLGPGKTRDIKETLDMGSAQDDLVDNLWIPEESLPGFRGFMESFYEKAFKTEMQLLSALAIALGVSEDHMKTLHNRAENEFRLLHYPAIPATELADGTATRIAEHTDFGTITMLFQDSVGGLQVEDQTQPGVFRSVESEKPTDIILNIGDSLQRLTNDTFRAACHRVTYPPAIKARDNVQIPERYSIAYFVKPNRHASLLPLKEFITDATPCRYEDVTAWEWNNRRITKLFG
modifications: Colletotrichum gloeosporioides
As for B1, in series [1] (in words), the “Accumulation of (4R)-hydroxy-L-proline” value is reported as “no accumulation of (4R)-hydroxy-L-proline was confirmed” and the “Conversion of the substrate to (4S)-hydroxy-L-pipecolic acid” value is “a major amount of the substrate was allowed to convert to (4S)-hydroxy-L-pipecolic acid”. Besides, in series [1] (after 64 hours), the “Accumulation amount of (4R)-hydroxy-L-proline” value is on record as 0 mmol/L, the “Accumulation amount of (4S)-hydroxy-L-pipecolic acid” value was determined as 19.1 mmol/L and the “Accumulation amount of L-pipecolic acid” value came to 0.2 mmol/L. In series [2], the “hydroxy-L-proline detected from the reaction solution” value (“hydroxy-L-proline detected” for short) is “no hydroxy-L-proline was detected” and the “Activity, Substrate: L-proline (cell spanning Km to kcat/Km)” value is on record as “(No activity)”.

B2: KjPH: amino acid hydroxylase from Kordia jejudonensis, GenBank WP_046758372, SEQ ID NO: 18 (protein, listed as Kordia jejudonensis)
chain: MESKIIGKVNFEEHLLDKELKLIDTFEFNDSYSEYASGIWKTCMLWNRSGQKDDHLSIEHDTYVKPTEYGKQLAYVNEIIANTFKKEHIKTVRLFMCINGLIIPHKDYLEFKKGFTRIHIPLKINEHALTSEEDVVYNMQKGEIWFIEGRKIHSAANFSKVKRINLVIDFAPDIPFEELFLNSENYQPNLIPKISQRTQLKEEELGYIKGLSKIINEMNFDDILSILSKIHFYRNVSSELVFGWLDEIATASNNYNIQRKAQEVTDLLIRKGPINN
As for B2, in series [2], the “hydroxy-L-proline detected” value is “small amount of hydroxy-L-proline was detected”.

B3: SmPH: L-proline cis-4-hydroxylase from Sinorhizobium meliloti 1021, GenBank CAC47686, SEQ ID NO: 10 (protein, listed as Sinorhizobium meliloti)
chain: MSTHFLGKVKFDEARLAEDLSTLEVAEFSSAYSDFACGKWEACVLRNRTGMQEEDIVVSHNAPALATPLSKSLPYLNELVETHFDCSAVRYTRIVRVSENACIIPHSDYLELDETFTRLHLVLDTNSGCANTEEDKIFHMGLGEIWFLDAMLPHSAACFSKTPRLHLMIDFEATAFPESFLRNVEQPVTTRDMVDPRKELTDEVIEGILGFSIIISEANYREIVSILAKLHFFYKADCRSMYDWLKEICKRRGDPALIEKTASLERFFLGHRERGEVMTY
Turning to B3, the “Accumulation of (4S)-hydroxy-L-proline” value in series [1] (in words) is reported as “Accumulation of (4S)-hydroxy-L-proline was confirmed”. Moreover, in series [1] (after 120 hours), the “Accumulation amount of (4S)-hydroxy-L-proline” value was found to be 0.2 mmol/L, the “Accumulation amount of (5S)-Hydroxy-L-pipecolic acid” value came out at 9.4 mmol/L and the “Accumulation amount of L-pipecolic acid” value is 5.6 mmol/L. For the same molecule, the “hydroxy-L-proline detected” value in series [2] was “small amount of hydroxy-L-proline was detected”. Moreover, the “Relative activity, Substrate: L-pipecolic acid” value in series [3] is given as 100%. In series [4], the “Relative activity, Substrate: L-proline (hydroxy-L-proline-producing activity, 100 = hydroxy-L-pipecolic acid-producing activity)” value (“Relative activity, Substrate: L-proline” for short) turned out to be 46% and the “hydroxy-L-proline detected” value is listed as “small amount of hydroxy-L-proline was detected”.

B4: XdPH: L-proline cis-4-hydroxylase from Xenorhabdus doucetiae FRM16, GenBank CDG16639, SEQ ID NO: 8 (protein, listed as Xenorhabdus doucetiae)
chain: MMSAKLLASIELNQEQIEHDLNIVGSEILDVAYSEYACGNWGTITLWNHSGDAGDQTSREYVGQARPTELGQQLDCINQLIRNNFNISLIKSVRIFRSYNGGAIYPHIDYLEFNQGFKRVHLVLKSDRSCLNSEENTVYHMLPGEVWFVDGHSAHSAMSLSRVGKYSLVLDFDSGAKFEDLYSESHTLCVDNLEPDIIHDRQPLPTSLRDSLAHIAEHADEFNIQSILFLATRFHFSYAVSIREYFQLLDECFSRNPYKSVRERYEALKDILVRSGYTSHNVNHFNSLSGVTIG
Take B4: the “Accumulation of (4S)-hydroxy-L-proline” value in series [1] (in words) is recorded as “Accumulation of (4S)-hydroxy-L-proline was confirmed”. Further, in series [1] (after 120 hours), the “Accumulation amount of (4S)-hydroxy-L-proline” value is recorded as 0.3 mmol/L, the “Accumulation amount of (5S)-Hydroxy-L-pipecolic acid” value was 15.2 mmol/L and the “Accumulation amount of L-pipecolic acid” value is reported as 10.6 mmol/L. The “hydroxy-L-proline detected” value in series [2] is on record as “small amount of hydroxy-L-proline was detected”. Further, in series [3], the “Relative activity, Substrate: L-pipecolic acid” value worked out at 100%. Moreover, in series [4], the “Relative activity, Substrate: L-proline” value was determined as 37% and the “hydroxy-L-proline detected” value is “small amount of hydroxy-L-proline was detected”.

B5: PcPH: L-pipecolic acid trans-4-hydroxylase from Penicillium chrysogenum Wisconsin 54-1255, GenBank XP_002558179, SEQ ID NO: 14 (protein, listed as Penicillium chrysogenum)
chain: MSQALDLSLLKGSPEERDEVSAALLDTLKTRGVAKLKNHGLPEDLIAEMFDYTRRFFSLSLEDKMTAKHPPEANPNRGYSYVGQESVSSISGYEKGLPQGKTIRDIKETLDMGSPHDSLVDNIWVAEEKLPGFRKFMEDFYESCFKVELEILDALAQALEISAPDLRLLHNKAENEFRLLHYPAVPASALEDGTATRIAEHTDFGTITMLFQDSTGGLQVEDQTNLGTFHDVVSGGKSEIILNIGDSLQRLTNDTFMAACHRVTYPPTVKVGSDVVIPERYSVAYFAKPNRIASLFPLKKFITPATPCKYEDITAWDYNNLRIAKLFS
In the case of B5, in series [1] (in words), the “Accumulation of (4R)-hydroxy-L-proline” value was “no accumulation of (4R)-hydroxy-L-proline was confirmed” and the “Conversion of the substrate to (4S)-hydroxy-L-pipecolic acid” value was “a major amount of the substrate was allowed to convert to (4S)-hydroxy-L-pipecolic acid”. Further, in series [1] (after 64 hours), the “Accumulation amount of (4R)-hydroxy-L-proline” value is given as 0 mmol/L, the “Accumulation amount of (4S)-hydroxy-L-pipecolic acid” value was found to be 17.4 mmol/L and the “Accumulation amount of L-pipecolic acid” value was determined as 2.1 mmol/L. In series [2], the “hydroxy-L-proline detected” value was “no hydroxy-L-proline was detected” and the “Activity, Substrate: L-proline (cell spanning Km to kcat/Km)” value is given as “(No activity)”.

B6: SruPH: L-pipecolic acid cis-5-hydroxylase from Segniliparus rugosus ATCC BAA-974, GenBank EFV12517, SEQ ID NO: 4 (protein, listed as Segniliparus rugosus)
chain: MKSYSLGKFEDRSIDSLIEEASGLPDSAYSSAYQEYSIGLWDTATLWNERGNESGEVSEHAAAAAPTAIGRSTPRLNEFVRAKFNVDVLRAVRLFRARQGAIIIPHRDYLEHSNGFCRIHLPLVTTPGARNSENNEVYRMLPGELWFLDSNEVHSGGVLDSGTRIHLVLDFTHEHNENPAAVLKNADRLRPIARDPRISRSKLDHEALESLIRGGRVVTLAMWPALVQMLARIHLTSDAHPAELYDWLDDLADRSGNDELVAEARRMRRYFLTDGISRTPSFERFWRELDAARKGELVS
Take B6: in series [1] (in words), the “Accumulation of (4S)-hydroxy-L-proline” value was “Accumulation of (4S)-hydroxy-L-proline was confirmed”. Further, in series [1] (after 120 hours), the “Accumulation amount of (4S)-hydroxy-L-proline” value is 1.8 mmol/L, the “Accumulation amount of (5S)-Hydroxy-L-pipecolic acid” value is reported as 22.5 mmol/L and the “Accumulation amount of L-pipecolic acid” value was determined as 0.1 mmol/L. Further, the “Conversion of the substrate to (5S)-hydroxy-L-pipecolic acid” value in series [1] (incubation for 120 hours, in words) was “almost the entire amount of the substrate was allowed to convert to (5S)-hydroxy-L-pipecolic acid”. Further, the “hydroxy-L-proline detected” value in series [2] is “small amount of hydroxy-L-proline was detected”. For the same molecule, the “Relative activity, Substrate: L-pipecolic acid” value in series [3] is on record as 100%. Besides, in series [4], the “Relative activity, Substrate: L-proline” value turned out to be 59% and the “hydroxy-L-proline detected” value is reported as “small amount of hydroxy-L-proline was detected”.
